# From patent US20220356229A1 (published 2022)
# T1: HKU1 full length Spike (human coronavirus HKU1, UniProt Q5MQD0 13-1276)
# T1 sequence: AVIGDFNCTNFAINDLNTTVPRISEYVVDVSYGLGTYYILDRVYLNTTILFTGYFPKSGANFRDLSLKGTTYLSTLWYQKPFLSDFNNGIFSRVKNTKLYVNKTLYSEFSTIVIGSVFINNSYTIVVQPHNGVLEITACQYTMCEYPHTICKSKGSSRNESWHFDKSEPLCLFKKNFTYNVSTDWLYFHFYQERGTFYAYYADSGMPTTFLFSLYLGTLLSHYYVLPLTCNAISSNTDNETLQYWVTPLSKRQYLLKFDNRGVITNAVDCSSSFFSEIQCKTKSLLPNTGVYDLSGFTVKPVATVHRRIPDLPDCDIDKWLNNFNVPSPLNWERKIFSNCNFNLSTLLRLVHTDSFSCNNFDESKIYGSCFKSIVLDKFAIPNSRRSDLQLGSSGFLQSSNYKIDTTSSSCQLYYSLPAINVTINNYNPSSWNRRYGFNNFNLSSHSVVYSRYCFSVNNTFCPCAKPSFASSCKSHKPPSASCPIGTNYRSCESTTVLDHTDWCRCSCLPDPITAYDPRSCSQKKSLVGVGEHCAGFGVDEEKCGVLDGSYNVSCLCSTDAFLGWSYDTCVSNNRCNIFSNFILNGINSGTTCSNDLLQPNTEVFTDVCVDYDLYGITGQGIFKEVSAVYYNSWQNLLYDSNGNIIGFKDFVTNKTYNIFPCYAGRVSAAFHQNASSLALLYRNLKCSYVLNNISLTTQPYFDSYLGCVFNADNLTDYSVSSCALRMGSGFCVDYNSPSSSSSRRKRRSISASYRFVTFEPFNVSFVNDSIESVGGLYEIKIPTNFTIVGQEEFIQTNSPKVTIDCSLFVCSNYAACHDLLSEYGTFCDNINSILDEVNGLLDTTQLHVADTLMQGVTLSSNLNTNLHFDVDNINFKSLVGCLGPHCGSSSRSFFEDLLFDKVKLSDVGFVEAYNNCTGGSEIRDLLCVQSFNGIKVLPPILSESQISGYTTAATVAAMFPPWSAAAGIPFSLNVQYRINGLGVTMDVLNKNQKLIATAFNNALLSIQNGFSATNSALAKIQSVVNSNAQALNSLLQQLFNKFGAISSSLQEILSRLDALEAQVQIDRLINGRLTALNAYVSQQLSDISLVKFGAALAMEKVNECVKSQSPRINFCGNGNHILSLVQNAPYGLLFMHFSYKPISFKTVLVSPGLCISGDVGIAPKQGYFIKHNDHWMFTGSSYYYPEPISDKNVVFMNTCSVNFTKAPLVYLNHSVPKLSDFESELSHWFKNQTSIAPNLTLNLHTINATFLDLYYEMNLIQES
# T2: MERS full length Spike (MERS-CoV, UniProt K9N5Q8 18-1291)
# T2 sequence: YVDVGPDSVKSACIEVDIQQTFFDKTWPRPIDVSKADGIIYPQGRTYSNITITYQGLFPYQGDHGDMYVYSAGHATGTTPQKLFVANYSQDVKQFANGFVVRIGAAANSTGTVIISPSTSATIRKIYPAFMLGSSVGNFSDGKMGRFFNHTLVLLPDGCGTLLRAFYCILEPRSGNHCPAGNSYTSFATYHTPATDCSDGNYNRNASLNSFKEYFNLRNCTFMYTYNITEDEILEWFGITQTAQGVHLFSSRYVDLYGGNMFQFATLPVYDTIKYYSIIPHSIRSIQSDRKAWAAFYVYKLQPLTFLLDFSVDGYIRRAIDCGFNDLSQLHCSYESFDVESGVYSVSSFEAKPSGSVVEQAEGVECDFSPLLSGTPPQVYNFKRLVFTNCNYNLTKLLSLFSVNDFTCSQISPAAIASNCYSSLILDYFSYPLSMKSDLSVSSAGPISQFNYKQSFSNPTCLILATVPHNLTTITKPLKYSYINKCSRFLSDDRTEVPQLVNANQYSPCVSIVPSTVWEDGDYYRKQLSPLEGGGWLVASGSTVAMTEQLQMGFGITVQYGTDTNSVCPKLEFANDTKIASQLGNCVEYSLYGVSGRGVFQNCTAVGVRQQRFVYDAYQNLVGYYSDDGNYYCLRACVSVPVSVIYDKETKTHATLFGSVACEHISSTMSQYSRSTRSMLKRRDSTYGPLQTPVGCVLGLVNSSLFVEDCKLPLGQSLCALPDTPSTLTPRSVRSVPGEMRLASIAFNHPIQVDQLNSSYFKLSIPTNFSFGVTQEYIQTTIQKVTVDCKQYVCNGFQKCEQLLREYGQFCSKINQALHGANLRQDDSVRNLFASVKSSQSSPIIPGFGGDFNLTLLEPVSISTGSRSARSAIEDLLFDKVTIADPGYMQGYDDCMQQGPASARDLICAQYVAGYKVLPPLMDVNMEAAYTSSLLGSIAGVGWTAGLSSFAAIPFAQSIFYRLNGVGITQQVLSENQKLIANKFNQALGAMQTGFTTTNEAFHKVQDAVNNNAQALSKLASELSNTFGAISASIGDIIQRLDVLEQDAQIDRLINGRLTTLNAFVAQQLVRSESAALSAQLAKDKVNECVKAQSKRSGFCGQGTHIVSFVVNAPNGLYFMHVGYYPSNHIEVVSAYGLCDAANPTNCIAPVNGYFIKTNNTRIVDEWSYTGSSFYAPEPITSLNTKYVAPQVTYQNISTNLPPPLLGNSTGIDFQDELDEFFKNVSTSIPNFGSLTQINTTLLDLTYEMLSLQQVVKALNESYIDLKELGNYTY
# B1: antibody 294 (antibody, V domains shown)
# VH: EVQLVESGGGLVQPGGSLRLSCAASGFTVSSNYMNWVRQAPGKGLEWVSVIYSGGSTYYADSVKGRFTISRDNSKNTLYLQMNSLRAEDTAVYYCARDLGPSGMDVWGQGTTVTVSS
# VL: DIQMTQSPSSVSASVGDRVTITCRASQGISSWLAWYQQKPGKAPKLLIYAASSLQSGVPSRFSGSGSGTDFTLTISSLQPEDFATYYCQQANSFPLFGGGTKVEIK
# B2: antibody 300 (antibody, V domains shown)
# VH: QVQLVESGGGVVQPGRSLTLSCAASGFTFSSYAMHWVRQAPGKGLEWVALISYDGNNKYYADSVKGRFTFSRDNSKNTLYLQMNSLRAEDTAVYYCARTNSGSYRTAFDYWGQGTLVTVSS
# VL: DIQMTQSPSTLSASVGDRVTITCRASQSISIWLAWYQQKPGKAPKLLIYKASSLESGVPSRFSGSGSGTEFTLTISSLQPDDFATYYCQQYNSLWTFGQGTKVEIK
# B3: antibody 301 (antibody, V domains shown)
# VH: QVQLVQSGAEVKKPGASVKVSCKVSGYTLTELSMHWVRQAPGKGLEWMGGFDPEDGETIYAQKFQGRVTMTEDTSTDTAYMELSSLRSEDTAVYYCATAFCGGDCYPPDALDIWGQGTMVTVSS
# VL: DIQMTQSPSSVSASVGDRVTITCRASQGISSWLAWYQQKPGKAPKLLIYAASSLQSGVPSRFSGSGSGTDFTLTISSLQPEDFATYYCQQANSFPLTFGGGTKVEIK
# B4: antibody 295 (antibody, V domains shown)
# VH: QVQLQESGPGLVKPSQTLSLTCTVSGGSISSSDYYWSWIRQPPGKGLEWIGYIYYSGSTYYNPSLKSRVTISVDTSKNQFSLKLSSVTAADTAVYYCARVVGYCSSTSCYVDYWGQGTLVTVSS
# VL: EIVLTQSPATLSLSPGERVTLSCRASQSVSSYLAWYQQKPGQAPRLLIYDASNRATGIPARFSGSGSGTDFTLTISSLEPEDFAVYYCQQRSNWPPGLTFGGGTKVEIK
# B5: antibody 288 (antibody, V domains shown)
# VH: EVQLVESGGGLVQPGGSLRLSCAASGFTFSSYDMHWVRQATGKGLEWVSAIGTAGDTYYPGSVKGRFTISRENAKNSLYLQMNSLRAGDTAVYYCARGANRDYDILTGYYSYYYYGMDVWGQGTTVTVSS
# VL: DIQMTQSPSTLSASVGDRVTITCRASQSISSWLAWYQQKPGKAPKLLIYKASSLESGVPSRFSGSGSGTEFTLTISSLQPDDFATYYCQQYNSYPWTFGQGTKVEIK
# B6: mAb 1538 (antibody, V domains shown)
# VH: EVQLLESGGGLVQPGGSLRLSCAASGFTFSSYAMSWVRQAPGKGLEWVSGISDSGGSTYYADYVKGRFTISRDNSKDTLYLQMNSLRAEDTAVYYCAKDRGNEYALTHYYYYAMDVWGQGTTVTVSS
# VL: DIQMTQSPSSLSASVGDRVTITCRASQSISSYLNWYQQKPGKAPKLLIYAAYSLQSGVPSRFSGGGSGTDFTLTISSLQPEDFATYFCQQSYSTPITFGQGTRLEIKR
# B7: mAb 1404 (antibody, V domains shown)
# VH: QITLKESGPTLVKPTQTLTLTCTFSGFSLSISGVGVGWLRQPPGKALEWLALIYWDDDKRYSPSLKSRLTISKDTSKNQVVLKMTNIDPVDTATYYCAHHSISTIFDHWGQGTLVTVSS
# VL: QSALTQPASVSGSPGQSITISCTATSSDVGDYNYVSWYQQHPGKAPKLMIFEVSDRPSGISNRFSGSKSGNTASLTISGLQAEDEADYYCSSYTTSSAVFGGGTKLTVLG
# B8: mAb 1444 (antibody, V domains shown)
# VH: QVQLVQSGAEVKKPGASVKVSCKASGYTFTAYYMHWVRQAPGQGLEWMGWINPNSDDTNYAQKFQGRVTMTRDTSISTAYMELSRLRSDDTAVYYCAREEGVFTIGDRYFDLWGRGTLVSVSS
# VL: QTVVTQEPSFSVSPGGTVTLTCGLSSGSVSTSYYPSWYQQTPGQAPRTLIYNTNTRSSGVPDRFSGSILGNKAALTITGAQADDESDYYCVLYMGSGIWVFGGGTKLTVLG
# B9: mAb 1149 (antibody, V domains shown)
# VH: QVQLVQSGAEVKKPGASVKVSCKASGYTFASYDINWVRQATGQGPEWMGWMIPNIGNTGYAQKFQGRVTMTRNTSISTAYMELSSLTSEDTAVYYCARVSRLFNDFGLRHEAPVDFWGQGTRVTVSS
# VL: QSVLTQPPSVSGAPGQRVTISCTGSSSNIGAGYDVHWYQQLPGTAPKLLIYGYSSRPSGVPDRFSGSKSGTSASLAITGLQAEDEADYYCQSYDSSLSVLFGGGTKLTVLG
# B10: mAb 1495 (antibody, V domains shown)
# VH: QVQLVESGGGVVQPGRSLRLSCTASGFTFSSYAMHWVRQAPGKGLEWVAVISYDGNNKYYGDSVKGRFTISRDNSKNTLYLQMNSLRAEDTAVYYCAKGADTPHYSGYHFLSVGYYFYGMDVWGQGTTVTVSS
# VL: DIQMTQSPSSLSASVGDRVTITCRASQSISYYLNWYQQKPGKAPQLLIYAASSLQSGVPSRFSGSRSGTDFTLTISSLQPEDFATYYCQQSYSTPFTFGPGTKVDIKR
# B11: mAb 1585 (antibody, V domains shown)
# VH: QVQLVESGGGVVQPGRSLRLSCAASGFTFSRFTLHWVRQAPGKGLEWVAVISYDGSNKYYADSVKGRFTISRDNSKSTLYLQMNSLRAEDTGVYYCARDPSTVTGYFDYWGQGTLVTVSS
# VL: SYVLTQPPSVSVAPGKTAKISCGGDSIGSKSVHWYQQKPGQAPVLVIYYDNDRPSGIPERFSGSNSGNTATLTISRVEAGDEADYYCQVWDIGVVFGGGTKLTVLG
# Molecular target: SARS-CoV-2 Spike (S) protein, wild type, full length (SARS-CoV-2, UniProt P0DTC2 14-1208)
row,Binder,bead binding signal (fold over isotype)
1,B1,1230
2,B2,721
3,B3,865
4,B4,599
5,B5,495

# Molecular target: T1, HKU1 full length Spike
row,Binder,"median fluorescence intensity, fold over isotype control [fold over isotype]"
1,B6,0.97
2,B7,0.94
3,B8,0.98
4,B9,0.83
5,B10,1.05
6,B11,0.88

# Molecular target: T2, MERS full length Spike
row,Binder,"median fluorescence intensity, fold over isotype control [fold over isotype]"
1,B6,0.95
2,B7,0.91
3,B8,0.98
4,B9,1.04
5,B10,0.93
6,B11,0.94

# Molecular target: SARS-CoV full length Spike (SARS-CoV, UniProt P59594 14-1190)
row,Binder,"median fluorescence intensity, fold over isotype control [fold over isotype]"
1,B6,0.99
2,B7,0.97
3,B8,1.03
4,B9,1.05
5,B10,1.08
6,B11,25.8
